# Reference: article PMC3466273
# B1: Pa-MAP (multifunctional alanine-rich peptide analogue based on the HPLC-8 type I antifreeze peptide motif) (synthetic; derived from Pleuronectes americanus … (peptide)
# chain: HTASDAAAAAALTAANAAAAAAASMA
# Biological target: His1 (position 1, -----HTASDA)
# Assay: potentiometry
# Details: not stated (electrode with a thermo-compensating apparatus); not stated (no added salt; distilled water with about 1 mM HCl/NaOH); none (distilled water acidified with 1 mM HCl, titrated with 1 mM NaOH); free peptide, 0.27 mM, 5 mL, in water
protein,measurement,value
B1,pKa,6.0
